{"source": "paper PMC5101480", "about": "(Scientific Reports, 2016)", "key": {"[1]": {"tested_on": "K160E/R164E double mutant SGTA_TPR", "test": "Reciprocal NMR CSP titration, Rpn13_260-407 with K160E/R164E double mutant SGTA_TPR", "format": "binding, human", "conditions": "up to 6-fold molar excess of Rpn13_260-407 and vice versa; pH 6.0, 25 °C", "text": "The ‘two-carboxylate clamp’ mode of binding is a well-characterised mechanism of molecular recognition by TPR domains in the context of their binding to the conserved C-terminal IEEVD and MEEVD motifs of Hsp70 and Hsp90 chaperones, respectively. It is known that conserved residues present on the concave surface of the TPR domain form a positively charged region within this groove that clamp, the two carboxylate groups of the terminal aspartate (Fig. 3D). […]\n(§1) Protein samples at concentrations between 300 μM and 1 mM were prepared in 10% D2O (Sigma Aldrich), 10 mM potassium phosphate pH 6.0, 100 mM NaCl and 250 μM TCEP buffer (with 10 μM DSS for proton chemical shift referencing). […] All NMR spectra were processed with TopSpin and analysed with CcpNMR Analysis[35]. Proteins used for NMR titrations were dialysed overnight against the same buffer (10 mM potassium phosphate pH 6.0, 100 mM NaCl and 250 μM TCEP) and mixed in different molar ratios, with the concentration of the labelled protein maintained constant. ^1H-^15N HSQC experiments were recorded for each titration point at 25 °C. Chemical shift perturbation (CSP) values were calculated for each amide signal using the following formula: […]"}, "[2]": {"target": "T1, TPR domain of SGTA (SGTA_TPR) (Homo sapiens, UniProt O43765)", "T1 construct": "thioredoxin A (TxA) fusion (N, cleaved yes); hexahistidine tag (N, cleaved yes); made in house; host or cells: E. coli BL21(DE3) Rosetta", "T1 sequence (O43765 84-211)": "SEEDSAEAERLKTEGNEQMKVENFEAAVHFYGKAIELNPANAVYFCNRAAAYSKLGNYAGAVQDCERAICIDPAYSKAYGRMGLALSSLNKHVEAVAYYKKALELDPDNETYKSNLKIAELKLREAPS", "test": "Isothermal titration calorimetry (ITC), SGTA_TPR titrated into Rpn13 or DMSLD peptide", "format": "binding", "description": "ITC experiments were performed using an ITC-200 microcalorimeter from Microcal (GE Healthcare) at 25 °C following the standard protocol as reported previously. Proteins or peptide samples were prepared in 10 mM potassium phosphate pH 6.0, 100 mM NaCl, 250 μM TCEP. In each titration, either 40 injections of 1 μL or 20 injections of 2 μL of SGTA_TPR each, at a concentration of 1 mM, were added to a sample of Rpn13 or the Rpn13 derived DMSLD peptide at a concentration of 50 μM in the reaction cell. A nonlinear least-squares minimization algorithm was applied to integrated heat data obtained for the titrations, corrected for heats of dilution, in order to fit the experimentally obtained values to a theoretical titration curve. This was performed using the MicroCal-Origin 7.0 software package. ΔH (reaction enthalpy change in kcal/mol), Kb (equilibrium binding constant in per molar), and n (molar ratio between the proteins in the complex) were used as fitting parameters. The reaction entropy, ΔS, was calculated using the relationships ΔG = −RT lnKb (R = 8.314 J/(mol K), T 298 K) where ΔG = ΔH − TΔS. Dissociation constants (Kd) have been determined for each interaction. Binding was assumed to be at one site (n = 1), to determine the binding affinity (Kd) and thermodynamic parameters."}, "[3]": {"tested_on": "TPR domain of SGTA (SGTA_TPR, residues 84–211)", "test": "Solution NMR CSP titration of unlabelled SGTA_TPR into 15N-labelled Rpn13_260-407", "format": "binding, human", "conditions": "15N-labelled Rpn13_260-407, SGTA_TPR to 1:1; pH 6.0, 25 °C", "description": "In order to understand molecular details underlying the interaction between SGTA and Rpn13, solution NMR studies were carried out on excised domains of SGTA and Rpn13 guided by earlier mapping studies. Reciprocal chemical shift perturbation (CSP) experiments were performed by titrating unlabelled Rpn13 C-terminal domain (residues 260–407; hereafter described as Rpn13_260-407) into ^15N-labelled TPR domain of SGTA (residues 84–211; hereafter referred to as SGTA_TPR) and vice versa. Assignments of backbone amide resonances were obtained from the BMRB (accession numbers 5709 and 17286, for SGTA_TPR and Rpn13_260-407, respectively). […]\nas §1"}}}
{"molecule": "Rpn13_260-407: Rpn13 C-terminal domain (residues 260–407), human, expressed in E. coli (protein, left off: thioredoxin A (TxA), N-terminal, cleaved | His6, N-terminal, cleaved, Rpn13 C-terminal domain (residues 260–407), human, expressed in E. coli) QPIQLSDLQSILATMNVPAGPAGGQQVDLASVLTPEIMAPILANADVQERLLPYLPSGESLPQTADEIQNTLTSPQFQQALGMFSAALASGQLGPLMCQFGLPAEAVEAANKGDVEAFAKAMQNNAKPEQKEGDTKDKKDEEEDMSLD", "values": [{"measurement": "CSP with K160E/R164E SGTA_TPR, result in words", "setting": "[1]", "result": "disruption of the SGTA_TPR-Rpn13_260-407 interaction"}, {"measurement": "ΔS (ITC)", "setting": "[2]; 1 mM SGTA_TPR into 50 μM sample, pH 6.0, 25 °C, calculated from ΔG = −RT lnKb and ΔG = ΔH − TΔS", "result": "10.6 ± 0.8", "unit": "cal/mol·K"}, {"measurement": "ΔH (ITC)", "setting": "[2]; 1 mM SGTA_TPR into 50 μM sample, pH 6.0, 25 °C, one site (n = 1)", "result": "-3.37 ± 0.08", "unit": "kcal/mol"}, {"measurement": "Kd", "setting": "[2]; ITC-200, 1 mM SGTA_TPR injected into 50 μM Rpn13 or DMSLD peptide, 10 mM potassium phosphate pH 6.0, 100 mM NaCl, 250 μM TCEP, 25 °C, one site (n = 1), read-out: dissociation constant, Kd (ITC)", "result": "16.1 ± 1.4", "unit": "µM"}, {"measurement": "CSP of Rpn13_260-407 backbone amides on binding SGTA_TPR", "setting": "[3]", "result": "only extreme C-terminal residues Met 404, Ser 405, Leu 406 and Asp 407 are perturbed"}]}
